Measured values reported in patent US7727960B2, “C5a receptor antagonists” (Jerini AG, priority 2003, dated 2010).
Read-outs that look alike come from different tables or passages of the source. One block for each molecule: values may come before it. Positions of bridges follow the written chain, without caps; N, C: chain ends. Non-standard residues stand in square brackets, D forms with d. Residues, ends and D or L forms follow the SMILES beside them. No end group written: not given here. Phenylbutanoyl = Phenylbutanoyl residue at the C-terminus; NEtPhe = CCN[C@@H](Cc1ccccc1)C(=O)O; NMeF = CN[C@@H](Cc1ccccc1)C(=O)O; Cha = N[C@@H](CC1CCCCC1)C(=O)O; dCha = N[C@H](CC1CCCCC1)C(=O)O; Nle = CCCC[C@H](N)C(=O)O; Orn = NCCC[C@H](N)C(=O)O; dNMeA = CN[C@H](C)C(=O)O

What was measured:
[1] = biological target: T1, C5aR (Homo sapiens, UniProt P21730); details: PMN membranes, cited from earlier work
T1 construct: derived from measurements with isolated membranes from polymorphonuclear neutrophilic granulocytes (PMN membranes); host or cells: isolated membranes of polymorphonuclear neutrophilic granulocytes (PMN membranes)
T1 sequence (P21730 1-350): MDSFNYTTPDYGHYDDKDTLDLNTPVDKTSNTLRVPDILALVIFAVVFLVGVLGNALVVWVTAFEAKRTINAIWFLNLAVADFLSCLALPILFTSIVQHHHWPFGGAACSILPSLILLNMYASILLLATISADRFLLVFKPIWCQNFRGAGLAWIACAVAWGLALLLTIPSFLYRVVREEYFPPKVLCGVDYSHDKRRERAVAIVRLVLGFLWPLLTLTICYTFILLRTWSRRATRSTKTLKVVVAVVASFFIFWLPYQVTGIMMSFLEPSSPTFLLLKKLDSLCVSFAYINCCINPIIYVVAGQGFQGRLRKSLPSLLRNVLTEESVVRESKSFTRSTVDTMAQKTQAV

[2] = biological target: T2, human C5aR (CD88) (Homo sapiens, UniProt P21730); test: Determination of EC50 values in an enzyme release assay (agonistic activity, no C5a added); format: cell-based; details: cellular assay, up to a concentration of at least 1430 nM
T2 construct: expressed in transfected cells; host or cells: rat basophilic leukemia cells (RBL)
T2 sequence (P21730 1-350): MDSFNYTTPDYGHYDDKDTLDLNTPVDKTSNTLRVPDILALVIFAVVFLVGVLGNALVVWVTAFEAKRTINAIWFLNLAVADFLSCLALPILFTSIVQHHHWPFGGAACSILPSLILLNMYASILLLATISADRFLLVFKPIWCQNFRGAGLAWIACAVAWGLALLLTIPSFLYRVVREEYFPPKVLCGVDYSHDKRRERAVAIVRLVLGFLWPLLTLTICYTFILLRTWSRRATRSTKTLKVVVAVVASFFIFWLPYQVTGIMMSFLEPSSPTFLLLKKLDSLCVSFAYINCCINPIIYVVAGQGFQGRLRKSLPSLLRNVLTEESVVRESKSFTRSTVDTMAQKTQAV
Experimental: The determination of the EC50 value was performed in a way similar to the procedure described in example 11, with the only exception that 30 μl of the compound to be tested were mixed with 75 μl of the cell suspension described in example 11. There was no preincubation or addition of C5a for stimulation of the enzyme release.

[3] = biological target: T2, human C5aR (CD88); test: Determination of the IC50 value in an enzyme release assay (functional assay, antagonistic activity); format: cell-based; details: noteworthy = IC50 of less than 200 nM in the functional assay
[4] = Solubility determination for selected C5aR-antagonists; format: physicochemical; details: 20 mM HEPES pH 7.4, 24 h at RT
Experimental: Solubility of compounds was determined by the following procedure: 20 μl of a 10 mM stock solution (in DMSO) of the compound were diluted in 980 μl of the solvent to be tested. After incubation for 24 h at RT under shaking the samples are centrifuged at 11.000 rpm in an Eppendorf centrifuge. The supematant is determined by photometry. […] Therefor the compound was suspended at 10 mg/ml in the solvent systems of choice. The undissolved part was removed by centrifugation after 24 h. The UV-absorption of the supernatant was measured and compared to a respective reference value 60% MeOH).

[5] = biological target: T3, C5a receptor (Homo sapiens, UniProt P21730); details: read-out: IC50 as a measure for affinity (WO 03/033528); cited from earlier work
T3 sequence (P21730 1-350): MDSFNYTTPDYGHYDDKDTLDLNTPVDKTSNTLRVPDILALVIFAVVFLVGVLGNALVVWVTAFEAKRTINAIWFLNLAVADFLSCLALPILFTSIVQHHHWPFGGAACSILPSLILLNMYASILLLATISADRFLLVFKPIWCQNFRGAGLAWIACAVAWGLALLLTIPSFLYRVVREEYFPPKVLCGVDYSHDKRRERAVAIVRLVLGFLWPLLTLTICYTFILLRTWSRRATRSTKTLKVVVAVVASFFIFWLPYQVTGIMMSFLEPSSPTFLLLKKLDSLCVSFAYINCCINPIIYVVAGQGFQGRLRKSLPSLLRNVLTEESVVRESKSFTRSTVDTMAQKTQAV

[6] = test system: human PMNs; details: myeloperoxidase release, read-out: IC50 antagonistic activity (WO 99/00406); cited from earlier work
[7] = biological target: T4, human C5aR (CD88) (human, UniProt P21730 1-350); test: cell-based or functional assay
T4 sequence (looked up): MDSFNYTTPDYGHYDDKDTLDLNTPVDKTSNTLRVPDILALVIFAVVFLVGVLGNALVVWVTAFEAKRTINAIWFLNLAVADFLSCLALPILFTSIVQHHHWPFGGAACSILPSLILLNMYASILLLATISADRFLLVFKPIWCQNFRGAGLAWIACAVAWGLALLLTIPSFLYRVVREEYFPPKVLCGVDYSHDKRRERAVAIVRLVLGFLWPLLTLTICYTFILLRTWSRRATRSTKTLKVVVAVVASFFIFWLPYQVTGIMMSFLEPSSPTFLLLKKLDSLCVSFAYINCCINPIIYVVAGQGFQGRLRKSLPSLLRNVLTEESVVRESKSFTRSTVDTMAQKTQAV

[8] = biological target: T4, human C5aR (CD88); test: cell-based or functional assay; remark: listed apart in the source
[9] = biological target: T4, human C5aR (CD88); test: cell-based or functional assay; remark: listed apart in the source
[10] = read-out: IC50 for the binding (WO 90/09162)
[11] = read-out: IC50 binding to C5aR (WO 92/12168)

Molecule: CC(=O)N[C@@H](Cc1ccccc1)C(=O)N[C@@H](CCCCN)C(=O)N[C@@H](C)C(=O)N[C@@H](CC1CCCCC1)C(=O)N[C@@H](C)C(=O)N[C@@H](CC(C)C)C(=O)N[C@H](C)C(=O)N[C@@H](Cc1ccc(O)cc1)C(=O)O [Ac-Phe-Lys-Ala-Cha-Ala-Leu-ala-Tyr-OH] (Ac-FKA[Cha]AL[dA]Y-OH)
- IC50 [1, 10]: 170 nM

- agonistic activity (in words) [2]: pure antagonists
- inhibitory activity (in words) [3]: noteworthy inhibitory activity
- Solubility in 20 mM HEPES pH 7.4 [4]: 93 % of 200 μM
Molecule: CCCC[C@@H]1NC(=O)[C@H](Cc2c[nH]c3ccccc23)NC(=O)[C@@H](CC2CCCCC2)NC(=O)[C@@H]2CCCN2C(=O)[C@@H](NC(=O)[C@H](Cc2ccccc2)NC(=O)[C@H](CCCCN)NC(C)=O)CCCNC1=O [Compound 43, Ac-Lys-Phe-[Orn-Pro-cha-Trp-Nle]] (Ac-KF[Orn]P[dCha]W[Nle]; lactam 3-C)

Molecule: (N-Ethyl)Phe-Lys-Ala-Cha-Ala-Leu-N-Methyl(D)ala-Arg-OH ([NEtPhe]KA[Cha]AL[dNMeA]R-OH; N-terminus assumed; SMILES CCN[C@@H](Cc1ccccc1)C(=O)N[C@@H](CCCCN)C(=O)N[C@@H](C)C(=O)N[C@@H](CC1CCCCC1)C(=O)N[C@@H](C)C(=O)N[C@@H](CC(C)C)C(=O)N(C)[C@H](C)C(=O)N[C@@H](CCCNC(=N)N)C(=O)O)
- IC50 [1, 10]: 11 nM

Molecule: (N-Methyl)Phe-Lys-Pro-cha-Phe-Phenylbutanoyl ([NMeF]KP[dCha]F-Phenylbutanoyl)
- IC50 [1, 11]: 2600 nM

Molecule: (N-Methyl)Phe-Lys-Pro-cha-ψ{CH2- N(CH2CH2C6H5)}-Arg-OH
- IC50 [1, 11]: 360 nM

Molecule: Ac-Phe-Lys-Ala-Cha-Ala-Leu-N-Methyl(D)ala-Arg-OH (Ac-FKA[Cha]AL[dNMeA]R-OH; SMILES CC(=O)N[C@@H](Cc1ccccc1)C(=O)N[C@@H](CCCCN)C(=O)N[C@@H](C)C(=O)N[C@@H](CC1CCCCC1)C(=O)N[C@@H](C)C(=O)N[C@@H](CC(C)C)C(=O)N(C)[C@H](C)C(=O)N[C@@H](CCCNC(=N)N)C(=O)O)
- IC50 [1, 10]: 12 nM

Molecule: Ac-Phe[Orn-Pro-cha-Trp-Arg] with the Arg substituted with homoarginine (WO 03/033528) [WO 03/033528 compound 44]
- IC50 [5]: 1360 nM

Molecule: Ac-Phe[Orn-Pro-cha-Trp-Arg] with the Arg substituted with lysine (WO 03/033528); number 47 also printed for canavanine [WO 03/033528 compound 47]
- IC50 [5]: 24000 nM

Molecule: Me-Phe-Lys-Pro-cha-Trp-arg (FKPXWX; N-methyl, D-cha, D-Arg; oligopeptide with antagonistic activity at the C5a receptor)
- IC50 [6]: 85 nM

- IC50 activity group, enzyme release assay [7]: ≤ 50 nM
- EC50, agonistic activity, enzyme release assay [8]: > 1430 nM
B1: Ac-Phe-[Orn-Pro-cha-Trp-Nle] (peptide)
peptide: Ac-F[Orn]P[dCha]W[Nle]
modifications: lactam (positions not given here); not fully specified (bridges); printed as Ac-Phe-[Orn-Pro-cha-Trp-Nle]

- IC50, functional assay [9]: > 30000 nM
- IC50 activity group, enzyme release assay [7]: > 2000 nM
B2: Ac-Phe-[Orn-Pro-cha-Ala-Arg] (peptide)
peptide: Ac-F[Orn]P[dCha]AR
modifications: lactam (positions not given here); not fully specified (bridges); printed as Ac-Phe-[Orn-Pro-cha-Ala-Arg]

- IC50 activity group, enzyme release assay [7]: ≤ 200 nM
- EC50, agonistic activity, enzyme release assay [8]: > 1430 nM
Molecule: {HOCH2(CHOH)4‑C═N‑O‑CH2‑CO}-F[Orn]P[dCha]W[Nle] (lactam 2-C) [HOCH2(CHOH)4-C═N-O-CH2-CO-Phe-[Orn-Pro-cha-Trp-Nle]]
